Measurements reported in PMC6954902 (Protein & Cell, 2019).

B1: MtEsxB (culture filtrate protein CFP-10 of Mycobacterium tuberculosis) (natural protein)
chain: MAEMKTDAATLAQEAGNFERISGDLKTQIDQVESTAGSLQGQWRGAAGTAAQAAVVRFQEAANKQKQELDEISTNIRQAGVQYSRADEEQQQALSSQMGF

Target: T1, MtEccCb1-ATPase3 (ATPase3 domain of EccCb1 from Mycobacterium tuberculosis, residues 315-591) (Mycobacterium tuberculosis H37Rv, UniProt P9WNB1 315-591)
T1 sequence: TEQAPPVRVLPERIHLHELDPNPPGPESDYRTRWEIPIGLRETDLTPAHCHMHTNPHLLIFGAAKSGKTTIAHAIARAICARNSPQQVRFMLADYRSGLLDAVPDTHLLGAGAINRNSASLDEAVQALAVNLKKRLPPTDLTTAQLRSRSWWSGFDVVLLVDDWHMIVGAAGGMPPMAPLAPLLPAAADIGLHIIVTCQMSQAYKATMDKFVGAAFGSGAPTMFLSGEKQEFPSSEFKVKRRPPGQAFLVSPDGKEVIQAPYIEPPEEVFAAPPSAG
Test: ITC
Conditions: both partners purified

Binder	Kd [µM]
B1	34
RADEEQQQALSSQMGF (source: synthetic peptide) [wild-type peptide corresponding to the C-terminal 16-residues of MtEsxB]	55
